Experimental data from patent US20100169988A1, “MEANS AND METHODS FOR ISOLATING AND DETERMINING NOVEL TARGETS FOR THE TREATMENT OF NEURODEGENERATIVE, NEUROLOGICAL OR NEUROPSYCHIATRIC DISORDERS AND COMPOSITIONS COMPRISING THE SAME” (priority 2006, published 2010).

Tests used:
APP-TAP-AICD (human) [1] = target: APP-TAP-AICD (human) (UniProt P05067); assay: streptavidin purification of APP-TAP-AICD from brain homogenate; iTRAQ 116/114, transgenic mouse 75 vs control mouse 72; MALDI-TOF/TOF
APP-TAP-AICD (human) [2] = target: APP-TAP-AICD (human) (UniProt P05067); assay: streptavidin purification of APP-TAP-AICD from brain homogenate; LTQ-FT semiquantitative method, transgenic mouse 75 vs control mouse 72

| Substance | iTRAQ ratio (APP-TAP-AICD (human) [1]) | probability that this protein is enriched (APP-TAP-AICD (human) [2]) |
| --- | --- | --- |
| Syntaxin-1B2 (from UniProt P61264 1-288) | 4.57 | – |
| fructose-bisphosphate aldolase A homolog (Adult male testis cDNA, RIKEN clone 4933425L11 product) (enzyme) | – | 0.87 |
| Heat shock protein HSP 90-alpha (HSP 86) (Tumor specific transplantation 86 kDa antigen) (from UniProt P07901 2-733) | 4.22 | – |
| Lrrk1 protein (Fragment), Q3UHC2 1-2014 | – | 0.88 |
| similar to heat shock protein 1, alpha isoform 1 | – | 1 |
